Patent publication US20160376353A1 (DECIMMUNE THERAPEUTICS, published 2016)

T1: N2 peptide (non-muscle myosin neo-epitope N2 12mer sequence)
T1 construct: also called N2 12-mer peptide
T1 peptide: LMKNMDPLNDNV


Target: T1, N2 peptide (non-muscle myosin …)
Experiment: SPR (BIACORE X100), antibody captured by anti-human Fc, N2 peptide in solution
Source text: The remaining sequences represent the germline sequences with the highest homology that encode productive antibody. All of the humanized sequences maintain the murine 21G6 CDR regions which are shown inside the boxes in FIG. 1. The humanized variable regions were cloned into a vector containing wild type human IgG1, human IgG1 containing a mutation at amino acid 297 (Asn 297 to Q297), human IgG4 containing a mutation at amino acid 228 (serine to proline) and human kappa light chain. Each antibody (heavy and light) combination was expressed by transient co-transfection in 293A cells (in the presence of low Ig serum). The antibody containing supernatants were collected and analyzed for binding to the N2 peptide by ELISA and BIACORE™ X100 system. All experiments were performed using a BIACORE™ X100 system. For antibody capture experiments, a CM5 chip was prepared by 10 ul/minute injection of EDC/NHS (N-ethyl-N′-(3-dimethylaminopropyl) carbodiimide (EDC), N-hydroxysuccinimide (NHS) for 7 minutes, followed by a 10 ul/minute injection of anti-human Fc (GE Lifesciences) at a concentration of 25 ug/ml in sodium acetate at pH 5 for 3 minutes. Ethanolamine-HCl was injected for 7 minutes at 10 ul/minute. The chimeric or humanized antibodies were captured onto flow cell 2 and N2 peptide at varying concentrations was flowed over flow cells 1 and 2 at a rate of 30 ul/minute with a contact time of 120 seconds and a dissociation period of 120 seconds. Complete removal of captured antibody was accomplished by regeneration with 3M MgCl2 for 30 seconds at a flow rate of 10 ul/minute. For peptide immobilized experiments, a CM5 chip was prepared by 10 ul/minute injection of EDC/NHS (N-ethyl-N′-(3-dimethylaminopropyl) carbodiimide (EDC), N-hydroxysuccinimide (NHS) for 7 minutes, followed by a 10 ul/minute injection of NEUTRAVIDIN® protein (ThermoFisher Pierce) at a concentration of 5 ug/ml in sodium acetate, pH 5 to an immobilization response of 100-200RU. Ethanolamine-HCl was injected for 7 minutes at 10 ul/minute. Biotin-labeled N2 peptide was captured on flow channel 2 with the goal of an experimental Rmax of about 50-100RU. Purified chimeric or humanized antibodies were flowed over both flow channels at a rate of 30 ul/min for a contact time of 120 seconds and allowed to dissociate for 600 seconds.

Row | Kd | Binder
1 | 6.4 to 8.4 µM | H2-21G6 / L2-21G6, wild type human IgG1 (antibody, V domains shown, also called H2/L2) VH: QVQLVQSGAEVKKPGASVKVSCKASGYTFTSYYMYWVRQAPGQGLEWIGGINPSNGGTNFNEKFKSKATMTVDKSTSTAYMELRSLRSDDSAVYYCTRWGYDREWFAYWGQGTLVTVSS VL: DIVMTQSPLSLPVTPGEPASISCRSSKSLLHSNGNTYLYWFLQKPGQSPQLLIYRMSNLASGVPDRFSGSGSGTDFTLKISRVEAEDVGVYYCMQHLEYPFTFGQGTKLEIKR
2 | 7.9 µM | H3-21G6 / L1-21G6, wild type human IgG1 (antibody, V domains shown, also called H3/L1) VH: QVQLVQSGAEVKKPGSSVKVSCKASGYTFTSYYMYWVRQAPGQGLEWIGGINPSNGGTNFNEKFKSKATITVDKSTSTAYMELSSLRSEDTAVYYCTRWGYDREWFAYWGQGTLVTVSS VL: DIVMTQSPATLSVSPGERATISCRSSKSLLHSNGNTYLYWFQQKPGQPPKVLIYRMSNLASGVPARFSGSGSGTDFTLTISSVEPEDFATYYCMQHLEYPFTFGGGTKLEIKR
3 | 11.5 µM | H3-21G6 / L2-21G6, wild type human IgG1 (antibody, V domains shown, also called H3/L2) VH: QVQLVQSGAEVKKPGSSVKVSCKASGYTFTSYYMYWVRQAPGQGLEWIGGINPSNGGTNFNEKFKSKATITVDKSTSTAYMELSSLRSEDTAVYYCTRWGYDREWFAYWGQGTLVTVSS VL: DIVMTQSPLSLPVTPGEPASISCRSSKSLLHSNGNTYLYWFLQKPGQSPQLLIYRMSNLASGVPDRFSGSGSGTDFTLKISRVEAEDVGVYYCMQHLEYPFTFGQGTKLEIKR
4 | 20.9 µM | H1-21G6 / L3-21G6, wild type human IgG1 (antibody, V domains shown, also called H1/L3) VH: QVQLVQSGAEVVKPGASVKLSCKASGYTFTSYYMYWVKQAPGQGLEWIGGINPSNGGTNFNEKFKSKATLTVDKSASTAYMELSSLRSEDTAVYYCTRWGYDREWFAYWGQGTLVTVSS VL: DIVMTQTPLSLSYTPGQPASISCRSSKSLLHSNGNTYLYWFLQKPGQSPQLLIYRMSNLASGVPDRFSGSGSGTDFTLKISRVEAEDVGVYYCMQHLEYPFTFGQGTKLEIKR
5 | 17 µM | H1-21G6 / L2-21G6, wild type human IgG1 (antibody, V domains shown, also called H1/L2) VH: QVQLVQSGAEVVKPGASVKLSCKASGYTFTSYYMYWVKQAPGQGLEWIGGINPSNGGTNFNEKFKSKATLTVDKSASTAYMELSSLRSEDTAVYYCTRWGYDREWFAYWGQGTLVTVSS VL: DIVMTQSPLSLPVTPGEPASISCRSSKSLLHSNGNTYLYWFLQKPGQSPQLLIYRMSNLASGVPDRFSGSGSGTDFTLKISRVEAEDVGVYYCMQHLEYPFTFGQGTKLEIKR
6 | 9.38 µM | H3-21G6 / L3-21G6, wild type human IgG1 (antibody, V domains shown, also called H3/L3) VH: QVQLVQSGAEVKKPGSSVKVSCKASGYTFTSYYMYWVRQAPGQGLEWIGGINPSNGGTNFNEKFKSKATITVDKSTSTAYMELSSLRSEDTAVYYCTRWGYDREWFAYWGQGTLVTVSS VL: DIVMTQTPLSLSYTPGQPASISCRSSKSLLHSNGNTYLYWFLQKPGQSPQLLIYRMSNLASGVPDRFSGSGSGTDFTLKISRVEAEDVGVYYCMQHLEYPFTFGQGTKLEIKR
7 | 9.56 µM | H2-21G6 / L3-21G6, wild type human IgG1 (antibody, V domains shown, also called H2/L3) VH: QVQLVQSGAEVKKPGASVKVSCKASGYTFTSYYMYWVRQAPGQGLEWIGGINPSNGGTNFNEKFKSKATMTVDKSTSTAYMELRSLRSDDSAVYYCTRWGYDREWFAYWGQGTLVTVSS VL: DIVMTQTPLSLSYTPGQPASISCRSSKSLLHSNGNTYLYWFLQKPGQSPQLLIYRMSNLASGVPDRFSGSGSGTDFTLKISRVEAEDVGVYYCMQHLEYPFTFGQGTKLEIKR
8 | 8.8 µM | H2-21G6 / L3-21G6, human IgG1 N297Q (antibody, V domains shown, also called H2/L3 N297Q) VH: QVQLVQSGAEVKKPGASVKVSCKASGYTFTSYYMYWVRQAPGQGLEWIGGINPSNGGTNFNEKFKSKATMTVDKSTSTAYMELRSLRSDDSAVYYCTRWGYDREWFAYWGQGTLVTVSS VL: DIVMTQTPLSLSYTPGQPASISCRSSKSLLHSNGNTYLYWFLQKPGQSPQLLIYRMSNLASGVPDRFSGSGSGTDFTLKISRVEAEDVGVYYCMQHLEYPFTFGQGTKLEIKR
